Source: patent publication EP4775226A1, “ANTIBODY DRUG CONJUGATE TARGETING GPC3 AND USE THEREOF” (priority 2023, dated 2025)
Where a chain is given by its changes, count along the chain named. Each block holds one binder with its values, some of them ahead of it.

Experiments:
human GPC3 (Glypican-3) [1] = target: T1, human GPC3 (Glypican-3) (human, UniProt P51654 25-580); assay: FACS on HepG2 cells
T1 construct: whole, on cells; The cell line of each value is named under assay

human GPC3 (Glypican-3) [2] = target: T1, human GPC3 (Glypican-3); assay: FACS on Huh-7 cells
human GPC3 (Glypican-3) [3] = target: T1, human GPC3 (Glypican-3); assay: cell-based or functional assay
human GPC3 (Glypican-3) [4] = target: T1, human GPC3 (Glypican-3); assay: cell-based or functional assay; remark: listed apart in the source
human GPC3 (Glypican-3) [5] = target: T1, human GPC3 (Glypican-3); assay: FACS on Huh7 liver cancer cells
human GPC3 (Glypican-3) [6] = target: T1, human GPC3 (Glypican-3); assay: FACS on GPC3-CHO-K1 cells (CHO-K1 overexpressing human GPC3)
human GPC3 (Glypican-3) [7] = target: T1, human GPC3 (Glypican-3); assay: cell-based or functional assay; remark: listed apart in the source

T1 sequence (P51654 25-580, form in doubt): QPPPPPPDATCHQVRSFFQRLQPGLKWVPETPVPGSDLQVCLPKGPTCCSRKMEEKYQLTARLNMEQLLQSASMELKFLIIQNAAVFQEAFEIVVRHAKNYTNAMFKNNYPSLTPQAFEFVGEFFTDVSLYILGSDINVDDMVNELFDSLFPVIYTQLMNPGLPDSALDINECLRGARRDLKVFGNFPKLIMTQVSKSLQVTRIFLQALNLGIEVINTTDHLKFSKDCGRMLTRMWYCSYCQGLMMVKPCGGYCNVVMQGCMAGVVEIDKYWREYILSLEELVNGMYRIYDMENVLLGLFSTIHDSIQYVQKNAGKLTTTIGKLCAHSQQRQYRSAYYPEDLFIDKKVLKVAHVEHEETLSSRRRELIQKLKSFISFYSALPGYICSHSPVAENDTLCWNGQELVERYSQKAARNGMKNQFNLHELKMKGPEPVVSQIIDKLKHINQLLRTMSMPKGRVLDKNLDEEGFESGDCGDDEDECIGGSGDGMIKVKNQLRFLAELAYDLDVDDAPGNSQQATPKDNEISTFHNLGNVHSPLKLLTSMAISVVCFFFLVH

B1: Hu 52H5D3B8-8 (antibody, human IgG1, kappa, V domains shown)
VH: EVQLVQSGAEVKKPGASVKVSCKASGYTFTDYEMHWVRQAPGQGLEWMGAIHPGSGGTAYNQKFKGRVTMTADKSISTAYMELSRLRSDDTAVYYCTRFYSYAYWGQGTLVTVSS
VL: DVVMTQTPLSLSVTPGQPASISCRSSQSLVHSNGNTYLQWYLQKPGQSPQLLIYKVSNRFSGVPDRFSGSGSGTDFTLKISRVEAEDVGVYFCSQSIHVPYTFGGGTKVEIKR
notes: also called humanized GPC3 antibody Hu 52H5D3B8-8; GPC3 antibody
EC50 (human GPC3 (Glypican-3) [1]): 0.351 nM
EC50 (human GPC3 (Glypican-3) [2]): 0.418 nM
Endocytosis on HepG2 cells, EC50 (pHAb dye-labelled secondary antibody) (human GPC3 (Glypican-3) [3]): 0.78 µg/mL
Endocytosis on HepG2 cells, Top (human GPC3 (Glypican-3) [3]): 62400
Percentage reduction of GPC3 on cell surface (%), Huh7 cells, 0.5 h (human GPC3 (Glypican-3) [4]): 18.6%
Percentage reduction of GPC3 on cell surface (%), Huh7 cells, 1 h (human GPC3 (Glypican-3) [4]): 37.1%
Percentage reduction of GPC3 on cell surface (%), Huh7 cells, 2 h (human GPC3 (Glypican-3) [4]): 52.8%
EC50 (human GPC3 (Glypican-3) [5]): 0.0569 µg/mL
EC50 (human GPC3 (Glypican-3) [6]): 0.411 nM

B2: Hu 52H5D3B8-8-mcc-AAQ-Exatecan (ADC-6) (antibody, human IgG1, kappa, DAR 4.0, V domains shown)
VH: B1 VH
VL: B1 VL
modifications: mcc-AAQ-Exatecan on cysteine thiols freed by partial reduction of interchain disulfide bonds; DAR 4.0 for the whole antibody; positions not given
EC50 value of cell killing activity in Huh7 cells (human GPC3 (Glypican-3) [7]): 0.0307 µg/mL

B4: Hu 52H5D3B8-8-MCC-AA-(3-cyano-L-alanine)-Exatecan (ADC-8) (antibody, human IgG1, kappa, DAR 8.0, V domains shown)
VH: B1 VH
VL: B1 VL
modifications: mcc-Ala-Ala-(3-cyano-L-alanine)-Exatecan on cysteine thiols freed by reduction of interchain disulfide bonds; DAR 8.0 for the whole antibody; positions not given
EC50 value of cell killing activity in Huh7 cells (human GPC3 (Glypican-3) [7]): 0.00734 µg/mL

B5: Hu 52H5D3B8-7-mcc-AAQ-Exatecan (ADC-7) (antibody, human IgG1, kappa, DAR 4.0, V domains shown)
VH: B1 VH
VL: B1 VL with F92Y
modifications: mcc-AAQ-Exatecan on cysteine thiols freed by partial reduction of interchain disulfide bonds; DAR 4.0 for the whole antibody; positions not given
EC50 value of cell killing activity in Huh7 cells (human GPC3 (Glypican-3) [7]): 0.0279 µg/mL

B10: Hu 52H5D3B8-8-MCC-AAAAQ-Exatecan (ADC-9) (antibody, human IgG1, kappa, DAR 8.0, V domains shown)
VH: B1 VH
VL: B1 VL
modifications: mcc-Ala-Ala-Ala-Ala-Gln-Exatecan on cysteine thiols freed by reduction of interchain disulfide bonds; DAR 8.0 for the whole antibody; positions not given
EC50 value of cell killing activity in Huh7 cells (human GPC3 (Glypican-3) [7]): 0.00478 µg/mL

B11: Hu 52H5D3B8-7-mcc-AAQ-Exatecan (ADC-5) (antibody, human IgG1, kappa, DAR 7.9, V domains shown)
VH: B1 VH
VL: B1 VL with F92Y
modifications: mcc-AAQ-Exatecan on cysteine thiols freed by reduction of interchain disulfide bonds; DAR 7.9 for the whole antibody; positions not given
EC50 value of cell killing activity in Huh7 cells (human GPC3 (Glypican-3) [7]): 0.0164 µg/mL

Continued, in another order:

Percentage reduction of GPC3 on cell surface (%), Huh7 cells, 0.5 h (human GPC3 (Glypican-3) [4]): 18.9%
Percentage reduction of GPC3 on cell surface (%), Huh7 cells, 1 h (human GPC3 (Glypican-3) [4]): 36.2%
Percentage reduction of GPC3 on cell surface (%), Huh7 cells, 2 h (human GPC3 (Glypican-3) [4]): 50.2%
EC50 (human GPC3 (Glypican-3) [5]): 0.0675 µg/mL
B3: Hu 52H5D3B8-8-mcc-AAQ-Exatecan (ADC-4) (antibody, human IgG1, kappa, DAR 8.0, V domains shown)
VH: B1 VH
VL: B1 VL
modifications: mcc-AAQ-Exatecan on cysteine thiols freed by reduction of interchain disulfide bonds; DAR 8.0 for the whole antibody; positions not given
notes: also called Hu 52H5D3B8-8-MCC-AAQ-Exa (ADC-4)
EC50 value of cell killing activity in Huh7 cells (human GPC3 (Glypican-3) [7]): 0.0149 µg/mL

Percentage reduction of GPC3 on cell surface (%), Huh7 cells, 0.5 h (human GPC3 (Glypican-3) [4]): 20%
Percentage reduction of GPC3 on cell surface (%), Huh7 cells, 1 h (human GPC3 (Glypican-3) [4]): 32.8%
Percentage reduction of GPC3 on cell surface (%), Huh7 cells, 2 h (human GPC3 (Glypican-3) [4]): 50.1%
EC50 (human GPC3 (Glypican-3) [5]): 0.0633 µg/mL
B6: Hu 52H5D3B8-8-mc-AAQ-Exatecan (ADC-3) (antibody, human IgG1, kappa, DAR 8.0, V domains shown)
VH: B1 VH
VL: B1 VL
modifications: mc-AAQ-Exatecan on cysteine thiols freed by reduction of interchain disulfide bonds; DAR 8.0 for the whole antibody; positions not given
notes: also called Hu 52H5D3B8-8-MC-AAQ-Exa (ADC-3)
EC50 value of cell killing activity in Huh7 cells (human GPC3 (Glypican-3) [7]): 0.0119 µg/mL

Percentage reduction of GPC3 on cell surface (%), Huh7 cells, 0.5 h (human GPC3 (Glypican-3) [4]): 17.9%
Percentage reduction of GPC3 on cell surface (%), Huh7 cells, 1 h (human GPC3 (Glypican-3) [4]): 32.9%
Percentage reduction of GPC3 on cell surface (%), Huh7 cells, 2 h (human GPC3 (Glypican-3) [4]): 52.2%
EC50 (human GPC3 (Glypican-3) [5]): 0.0673 µg/mL
B7: Hu 52H5D3B8-8-mc-AAN-Exatecan (ADC-1) (antibody, human IgG1, kappa, DAR 8.0, V domains shown)
VH: B1 VH
VL: B1 VL
modifications: mc-AAN-Exatecan on cysteine thiols freed by reduction of interchain disulfide bonds; DAR 8.0 for the whole antibody; positions not given
notes: also called Hu 52H5D3B8-8-MC-AAN-Exa (ADC-1)
EC50 value of cell killing activity in Huh7 cells (human GPC3 (Glypican-3) [7]): 0.00359 µg/mL

Percentage reduction of GPC3 on cell surface (%), Huh7 cells, 0.5 h (human GPC3 (Glypican-3) [4]): 20.5%
Percentage reduction of GPC3 on cell surface (%), Huh7 cells, 1 h (human GPC3 (Glypican-3) [4]): 38.2%
Percentage reduction of GPC3 on cell surface (%), Huh7 cells, 2 h (human GPC3 (Glypican-3) [4]): 52.2%
EC50 (human GPC3 (Glypican-3) [5]): 0.061 µg/mL
B8: Hu 52H5D3B8-8-mcc-AAN-Exatecan (ADC-2) (antibody, human IgG1, kappa, DAR 8.0, V domains shown)
VH: B1 VH
VL: B1 VL
modifications: mcc-AAN-Exatecan on cysteine thiols freed by reduction of interchain disulfide bonds; DAR 8.0 for the whole antibody; positions not given
notes: also called Hu 52H5D3B8-8-MCC-AAN-Exa (ADC-2)
EC50 value of cell killing activity in Huh7 cells (human GPC3 (Glypican-3) [7]): 0.00939 µg/mL

EC50 (human GPC3 (Glypican-3) [1]): 0.611 nM
EC50 (human GPC3 (Glypican-3) [2]): 0.667 nM
Endocytosis on HepG2 cells, EC50 (pHAb dye-labelled secondary antibody) (human GPC3 (Glypican-3) [3]): 1.11 µg/mL
Endocytosis on HepG2 cells, Top (human GPC3 (Glypican-3) [3]): 52200
EC50 (human GPC3 (Glypican-3) [6]): 0.907 nM
B9: Y035 CDRs with Hu 52H5D3B8-7 FRs (antibody, V domains shown)
VH: B1 VH with G57D, K63R
VL: DVVMTQTPLSLSVTPGQPASISCRSSQSLVHSNGNTYLQWYLQKPGQSPQLLIYKVSNRFSGVPDRFSGSGSGTDFTLKISRVEAEDVGVYYCSQSIYVPYTFGGGTKVEIK
notes: detected with anti-human IgG

EC50 (human GPC3 (Glypican-3) [1]): 0.405 nM
EC50 (human GPC3 (Glypican-3) [2]): 0.464 nM
Endocytosis on HepG2 cells, EC50 (pHAb dye-labelled secondary antibody) (human GPC3 (Glypican-3) [3]): 0.72 µg/mL
Endocytosis on HepG2 cells, Top (human GPC3 (Glypican-3) [3]): 58600
EC50 (human GPC3 (Glypican-3) [6]): 0.446 nM
B12: Hu 52H5D3B8-7 (antibody, human IgG1, kappa, V domains shown)
VH: B1 VH
VL: B1 VL with F92Y
notes: also called humanized GPC3 antibody Hu 52H5D3B8-7

EC50 (human GPC3 (Glypican-3) [1]): 0.745 nM
EC50 (human GPC3 (Glypican-3) [2]): 0.953 nM
EC50 (human GPC3 (Glypican-3) [6]): 0.956 nM
B13: GC33 antibody (Chugai Pharmaceutical) (antibody, V domains shown)
VH: QVQLVQSGAEVKKPGASVKVSCKASGYTFTDYEMHWVRQAPGQGLEWMGALDPKTGDTAYSQKFKGRVTLTADKSTSTAYMELSSLTSEDTAVYYCTRFYSYTYWGQGTLVTVSS
VL: B9 VL with T7S, S12P, Q17E, Q39H, S96N, I97T, Y98H, Y101P, G105Q, V109L
notes: Control antibody; preparation described in US 7919086 B2; detected with anti-human IgG
